Data on 2 molecules can be found in patent US20230071609A1 (Genentech, published 2023).

Test [1] addresses T1, gD-MAD-SRA-ID-GPI (construct d) (human, UniProt O14791 238-398, C-terminal GPI anchor).
T1 sequence: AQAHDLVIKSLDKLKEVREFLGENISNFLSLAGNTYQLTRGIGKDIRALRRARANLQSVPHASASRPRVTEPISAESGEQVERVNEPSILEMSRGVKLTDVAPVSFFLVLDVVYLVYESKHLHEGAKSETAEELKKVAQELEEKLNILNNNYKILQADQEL
In words: flow cytometry, live CHO cells; 3.7D6 is the representative PFD antibody. Here is the method: Stably transfected live (not fixed or permeabilized) CHO cells expressing the gD-iAPOL1-GPI constructs indicated in FIGS. 1A-1E after induction with 5 μg/ml dox for 48 h, showing differential antibody binding at 5 μg/ml. […] White histograms are Alexa488 anti-mouse or anti-rabbit secondaries only; grey histograms are the anti-APOL1 signals. A representative histogram for each category is shown: 3.7D6 for PFD; 3.3A8 for C-terminus of MAD, 3.5H9 for N-terminus of MAD; 3.1C1 for SRA-ID; 3.2D4 for multi-domain; 3.3F7 for conformational and 3.5B10 for FACS-negative (FACS-ve). The prefix 3 in the name of the antibodies denotes murine monoclonals from Method #3 (as shown in Example 1 below); other antibodies (not illustrated here) starting with the number 4 are murine monoclonals derived from mice additionally boosted with SRA-ID protein; and prefix 5-named antibodies are rabbit monoclonals from Method #5 (Table 2A; and Example 2). […] The Sigma polyclonal (HPA018885, raised to aa 263-387) and the Epitomics rabbit monoclonal (EPR2907(2), raised to an undisclosed peptide) are SRA-ID binders. […]
Cells were harvested with 5 mM EDTA in PBS, washed once with growth media and twice with PBS. […] Signals were read in a FACSCalibur3 (Becton Dickinson), with the exception of FIG. 8A and FIG. 14, which used a FACSCelesta, and data was analyzed using FlowJo v8.4.5.

Test [2] addresses T2, circulating APOL1 in normal human serum (human, UniProt O14791 28-398).
T2 sequence (looked up): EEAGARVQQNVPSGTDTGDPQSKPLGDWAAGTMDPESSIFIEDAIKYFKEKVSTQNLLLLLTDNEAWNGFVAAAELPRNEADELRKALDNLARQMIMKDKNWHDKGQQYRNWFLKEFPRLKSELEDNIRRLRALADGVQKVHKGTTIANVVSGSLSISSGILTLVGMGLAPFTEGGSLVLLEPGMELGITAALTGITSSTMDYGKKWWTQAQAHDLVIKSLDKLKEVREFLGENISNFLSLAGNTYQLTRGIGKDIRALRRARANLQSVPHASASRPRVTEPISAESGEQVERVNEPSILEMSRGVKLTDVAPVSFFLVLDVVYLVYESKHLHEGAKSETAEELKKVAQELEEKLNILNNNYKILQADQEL
In words: cell-based or functional assay.

Test [3] has as its target T3, APOL6-myc-FLAG (human, UniProt Q9BWW8 1-343).
T3 construct: whole, on cells; In fixed, permeabilized transfected COS cells; untagged APOL6 in the western blots; not shown: C-terminal myc-FLAG tag
T3 sequence (looked up): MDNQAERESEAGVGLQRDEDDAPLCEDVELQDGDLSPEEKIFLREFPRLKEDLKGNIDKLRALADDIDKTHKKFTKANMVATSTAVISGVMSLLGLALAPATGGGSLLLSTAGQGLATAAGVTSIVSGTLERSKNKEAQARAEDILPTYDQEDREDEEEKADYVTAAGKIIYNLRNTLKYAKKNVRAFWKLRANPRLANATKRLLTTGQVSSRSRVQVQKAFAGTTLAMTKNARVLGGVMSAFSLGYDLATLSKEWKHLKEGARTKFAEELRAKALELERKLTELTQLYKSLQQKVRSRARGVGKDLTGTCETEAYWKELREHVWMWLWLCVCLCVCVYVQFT
In words: immunofluorescence on transfected COS cells; grade (also no cross-reaction by western blot). The text has this:
COS cells were transfected as in FIG. 31A except APOL1 and APOL2 were also C-terminally myc-FLAG tagged. Overlays of APOL with epitope tags: either mouse anti-FLAG-M2 or mouse anti-myc 9E10 for anti-APOL1 rabmabs; or rabbit anti-Myc 71D10 in conjunction with mouse anti-APOL1. Signals indicate the two antibodies overlap (i.e. anti-APOL1 cross-reacts with that APOL); signals (epitope tag only) indicate no cross-reactivity. Alexa647 anti-rabbit or mouse were used for the tags to rule out the possibility that any colocalization was a bleed-through artifact. Sparsely transfected areas were imaged to permit evaluation of background staining in adjacent untransfected cells—DAPI nuclear staining identifies both untransfected and transfected cell nuclei. […] Note that none of the antibodies cross-reacted with the more distantly related APOL6. *, APOL2-myc-FLAG is presumably misfolded, since it is not as cross-reactive as untagged APOL2 (compare FIG. 31A) with several antibodies. Commercial antibodies are Sigma HPA018885, Epitomics EPR2907 (2) (Epito) and Proteintech 11486-2-AP (Ptech).
Cells were plated on LabTekII (Nalge Nunc 154534) slides and fixed at 70-100% confluency. For mAb screening, cells were fixed/permeabilized for 5 min in −20° C. methanol (EMD MX0485-6). […]
For orientation: In western blotting, separated proteins are transferred to a membrane and probed.

B1: antibody 3.7D6 (antibody, V domains shown)
VH: QIQLVQSGPDLKKPGETVKISCRTSGYAFTNYGVNWVKQAPGKGLKWMGWINTNTGQTTYAEEFRGRFAISLETSASTAFLTISNLKNEDSATYFCARLIYDGDYISSDFWGQGTTLTVSS
VL: DIQMTQSPDSLSASVGETVTITCGASENIYGALNWYQRKQGKSPQLLIYGATNLADGMSSRFSGSRSGRQYSLKISSLHPDDVATYYCQNALSMPYTFGGGTKLEIKR
notes: Mouse mAb, cloned as murine IgG2a LALAPG; those versions are not written separately; also called PFD antibody 3.7D6
On to B1, for which, in test [1], the binding result is on record as “no binding (tested: 5 µg/ml)”. For the same molecule, the “IC50 of blocking of serum APOL1-mediated trypanolysis (Alamar Blue)” value in test [2] is 0.5 nM.

B2: antibody 4.12E5 (antibody, V domains shown)
VH: EVQLQQSGPELVKTGASVKISCKASGYSFTGYFMHWVKQSHGKSLEWIGYISCYNGASVYNQRFKGKATFTIDTSSSTAYMQFNSLTSEDSAVYYCARDVLRYPRYAVDYWGQGTSVTVSS
VL: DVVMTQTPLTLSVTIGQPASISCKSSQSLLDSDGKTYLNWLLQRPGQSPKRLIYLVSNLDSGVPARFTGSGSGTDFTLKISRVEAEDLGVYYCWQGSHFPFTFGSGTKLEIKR
notes: Mouse mAb, cloned as murine IgG2a LALAPG
On to B2, for which, in test [3], the binding result is “no binding (tested: 1 µg/ml)”.
